The target of test [1] is human FcγRIIb on CHOK1 cells overexpressing FcγRIIb (human) (UniProt P31994). The test is described as follows: flow cytometry on CHOK1 cells overexpressing FcγRIIb; detection with anti-human kappa antibody.
The target in test [2] is human FcγRIIa (R131) on CHOK1 cells overexpressing FcγRIIa (R131) (human) (UniProt P12318). Nature of the test: flow cytometry on CHOK1 cells overexpressing FcγRIIa (R131); detection with anti-human kappa antibody.
Sequence of UniProt P12318 (P12318 34-317 H167R): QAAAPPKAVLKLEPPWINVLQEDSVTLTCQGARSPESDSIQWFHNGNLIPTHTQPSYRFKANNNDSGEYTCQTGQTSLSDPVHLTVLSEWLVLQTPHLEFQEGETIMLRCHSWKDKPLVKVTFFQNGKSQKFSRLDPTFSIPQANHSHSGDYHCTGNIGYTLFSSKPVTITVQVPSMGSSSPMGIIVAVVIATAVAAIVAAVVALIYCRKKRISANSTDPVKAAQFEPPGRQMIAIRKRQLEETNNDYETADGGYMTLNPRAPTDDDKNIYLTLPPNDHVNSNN

Sequence of UniProt P31994 (P31994 43-310): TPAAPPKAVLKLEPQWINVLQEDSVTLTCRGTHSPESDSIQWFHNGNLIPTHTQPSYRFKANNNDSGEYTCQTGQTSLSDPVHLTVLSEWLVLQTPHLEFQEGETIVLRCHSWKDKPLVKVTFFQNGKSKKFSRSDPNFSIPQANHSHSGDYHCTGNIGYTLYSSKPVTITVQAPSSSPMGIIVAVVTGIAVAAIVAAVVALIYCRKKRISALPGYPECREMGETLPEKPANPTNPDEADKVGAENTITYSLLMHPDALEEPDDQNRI

On to “anti-LAG3 SELF (from UniProt P01857 1-330) (antibody)”, for which the Log EC50 in test [1] was -0.0779. As for “anti-RSV AAA (from UniProt P01857 1-330) (antibody)”, the Log EC50 in test [1] worked out at 4.42; in test [2], 3.9.
